Experiment [1] deals with HLA-A*68:02. Kind of experiment: IEDB peptide-MHC binding, purified MHC/competitive/fluorescence; filed as Kd, often an IC50 or EC50 that approximates it; ≥ and ≤ were set here for values at or beyond the usual limits of such assays. As to conditions: source organism: Human immunodeficiency virus 1.
For experiment [2], the target named is HLA-A*02:01. The experiment is described as above. As to conditions: source organism: Human immunodeficiency virus 1.
Experiment [3] has as its target HLA-B*08:03. The description is as above. As to conditions: source organism: Human immunodeficiency virus 1.
Experiment [4] concerns the target HLA-B*39:01. The experiment is described as above. As to conditions: source organism: Human immunodeficiency virus 1.
For experiment [5], the target named is HLA-B*15:01. The description is as above. As to conditions: source organism: Human immunodeficiency virus 1.
Experiment [6] addresses HLA-A*26:02. The description is as above. As to conditions: source organism: Human immunodeficiency virus 1.
Experiment [7] addresses HLA-A*66:01. Described as above. As to conditions: source organism: Vibrio parahaemolyticus AQ3810.
Experiment [8] has as its target HLA-B*53:01. Described as above. As to conditions: source organism: Vibrio parahaemolyticus AQ3810.
Experiment [9] has as its target HLA-B*27:05. The description is as above. As to conditions: source organism: Vibrio parahaemolyticus AQ3810.
The target of experiment [10] is HLA-B*40:01. The experiment is described as above. As to conditions: source organism: Vibrio parahaemolyticus AQ3810.
In experiment [11] the target is HLA-A*11:01. The description is as above. As to conditions: source organism: Vibrio parahaemolyticus AQ3810.
In experiment [12] the target is HLA-B*44:02. The description is as above. As to conditions: source organism: Vibrio parahaemolyticus AQ3810.
The target in experiment [13] is HLA-A*30:01. The experiment is described as above.
For experiment [14], the target named is HLA-B*08:01. The description is as above. As to conditions: source organism: Vibrio parahaemolyticus AQ3810.
Experiment [15] deals with HLA-A*30:02. The description is as above. As to conditions: source organism: Vibrio parahaemolyticus AQ3810.
The target of experiment [16] is HLA-A*01:01. The experiment is described as above. As to conditions: source organism: Vibrio parahaemolyticus AQ3810.
The target in experiment [17] is HLA-B*14:02. The experiment is described as above. As to conditions: source organism: Vibrio parahaemolyticus AQ3810.
The target of experiment [18] is HLA-B*58:01. Described as above. As to conditions: source organism: Vibrio parahaemolyticus AQ3810.
The target in experiment [19] is HLA-B*07:02. Described as above.
The target in experiment [20] is HLA-B*15:17. Kind of experiment: IEDB peptide-MHC binding, purified MHC/direct/fluorescence; filed as Kd, often an IC50 or EC50 that approximates it; ≥ and ≤ were set here for values at or beyond the usual limits of such assays. As to conditions: source organism: Vibrio parahaemolyticus AQ3810.
For experiment [21], the target named is HLA-B*18:01. The description is as above. As to conditions: source organism: Vibrio parahaemolyticus AQ3810.
In experiment [22] the target is HLA-B*57:01. Described as above. As to conditions: source organism: Vibrio parahaemolyticus AQ3810.
Experiment [23] deals with HLA-A*24:03. The description is as above. As to conditions: source organism: Vibrio parahaemolyticus AQ3810.
Experiment [24] concerns the target HLA-A*02:01. Described as above. As to conditions: source organism: Vibrio parahaemolyticus AQ3810.
Experiment [25] has as its target HLA-A*02:06. The description is as above. As to conditions: source organism: Vibrio parahaemolyticus AQ3810.
Experiment [26] has as its target HLA-A*23:01. The description is as above. As to conditions: source organism: Vibrio parahaemolyticus AQ3810.
Experiment [27] has as its target HLA-B*46:01. The experiment is described as above. As to conditions: source organism: Vibrio parahaemolyticus AQ3810.
In experiment [28] the target is HLA-A*69:01. The description is as above. As to conditions: source organism: Vibrio parahaemolyticus AQ3810.
Experiment [29] deals with HLA-A*03:01. The description is as above. As to conditions: source organism: Vibrio parahaemolyticus AQ3810.
Experiment [30] concerns the target HLA-B*51:01. Described as above. As to conditions: source organism: Vibrio parahaemolyticus AQ3810.
Experiment [31] deals with HLA-A*02:19. The experiment is described as above. As to conditions: source organism: Vibrio parahaemolyticus AQ3810.
Experiment [32] has as its target HLA-A*29:02. The experiment is described as above. As to conditions: source organism: Vibrio parahaemolyticus AQ3810.
Experiment [33] concerns the target HLA-B*27:03. The description is as above. As to conditions: source organism: Vibrio parahaemolyticus AQ3810.
For experiment [34], the target named is HLA-B*15:01. Described as above. As to conditions: source organism: Vibrio parahaemolyticus AQ3810.
Experiment [35] deals with HLA-A*26:01. The experiment is described as above. As to conditions: source organism: Vibrio parahaemolyticus AQ3810.
Experiment [36] deals with HLA-A*02:03. Nature of the experiment: IEDB peptide-MHC binding, purified MHC/competitive/fluorescence; filed as Kd, often an IC50 or EC50 that approximates it; ≥ and ≤ were set here for values at or beyond the usual limits of such assays. As to conditions: source organism: Human immunodeficiency virus 1.
For experiment [37], the target named is HLA-B*08:02. The description is as above. As to conditions: source organism: Human immunodeficiency virus 1.
Experiment [38] concerns the target HLA-A*02:06. Described as above. As to conditions: source organism: Human immunodeficiency virus 1.
Experiment [39] deals with HLA-B*15:09. Described as above. As to conditions: source organism: Human immunodeficiency virus 1.
In experiment [40] the target is HLA-A*26:01. The experiment is described as above. As to conditions: source organism: Human immunodeficiency virus 1.
Where [41] appears, read: source organism: Vibrio parahaemolyticus AQ3810.
The mark [42] stands for this setting: source organism: Human immunodeficiency virus 1.

This passage reports Kd results from the Immune Epitope Database (IEDB).

As a reminder, the Kd is the free concentration of one partner at which half of the binding sites on the other are occupied at equilibrium, for simple one-to-one binding. Lower therefore signals higher affinity.

As to EIKDTEEAL, the Kd in experiment [1] was 0.183 µM; in [2], at least 20 µM; in experiment [3], at least 20 µM; in experiment [4] it was at least 20 µM; in experiment [5], at least 20 µM; in experiment [6], at least 20 µM.
Take HQFTSNPEV: the equilibrium dissociation constant (Kd) in experiment [7] is at least 5 µM; in experiment [8], at least 5 µM; in [9] it was at least 5 µM; in experiment [10] it was 0.416 µM; in [11], at least 5 µM; in experiment [12], at least 5 µM. Also, the Kd in experiment [13] (setting [41]), in [14], in experiment [15], in [16], in experiment [17] and in [18] was at least 5 µM in each case. For the same sequence, the Kd in experiment [19] (setting [41]) is at least 5 µM; in experiment [20], at least 20 µM; in [21], at least 20 µM; in experiment [22], at least 20 µM; in experiment [23], at least 20 µM; in experiment [24] it was 0.004 µM. The dissociation constant Kd is 0.008 µM in experiment [25]; at least 20 µM in experiment [26]; at least 20 µM in experiment [27]; at least 20 µM in experiment [28]; at least 20 µM in experiment [29]; at least 20 µM in experiment [30]. The dissociation constant Kd in experiment [31], in experiment [32], in [33], in experiment [34] and in [35] was at least 20 µM throughout.
As to EVKSLFNTV, the Kd was 0.0004 µM in [1]; at least 20 µM in experiment [36]; at least 20 µM in experiment [37]; at least 20 µM in experiment [2]; 0.0849 µM in experiment [38]; at least 20 µM in experiment [13] (setting [42]). Further, the Kd in experiment [39] was at least 20 µM; in experiment [19] (setting [42]), at least 20 µM; in [6], 0.199 µM; in experiment [40], at least 20 µM.
